Data as given in patent publication US20230250170A1 (Regeneron, published 2023).
Positions count from the first letter of the chain named.

T1: pig NPR1 extracellular domain expressed with a C-terminal myc-myc-hexahistidine (pig)
T1 chain: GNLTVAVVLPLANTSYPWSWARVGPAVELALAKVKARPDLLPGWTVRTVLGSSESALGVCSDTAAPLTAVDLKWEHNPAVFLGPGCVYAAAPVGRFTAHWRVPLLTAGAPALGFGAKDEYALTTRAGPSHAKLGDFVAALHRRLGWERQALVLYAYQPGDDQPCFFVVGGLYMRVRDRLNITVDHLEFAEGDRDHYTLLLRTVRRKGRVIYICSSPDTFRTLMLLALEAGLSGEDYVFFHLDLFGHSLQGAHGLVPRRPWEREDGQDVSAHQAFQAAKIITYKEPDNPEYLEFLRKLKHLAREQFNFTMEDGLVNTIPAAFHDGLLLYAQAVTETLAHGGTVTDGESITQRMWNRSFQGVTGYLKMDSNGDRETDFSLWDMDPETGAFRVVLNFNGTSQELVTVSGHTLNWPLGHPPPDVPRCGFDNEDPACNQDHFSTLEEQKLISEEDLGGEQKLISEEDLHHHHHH

T2: dog NPR1 extracellular domain expressed with a C-terminal myc-myc-hexahistidine (dog)
T2 chain: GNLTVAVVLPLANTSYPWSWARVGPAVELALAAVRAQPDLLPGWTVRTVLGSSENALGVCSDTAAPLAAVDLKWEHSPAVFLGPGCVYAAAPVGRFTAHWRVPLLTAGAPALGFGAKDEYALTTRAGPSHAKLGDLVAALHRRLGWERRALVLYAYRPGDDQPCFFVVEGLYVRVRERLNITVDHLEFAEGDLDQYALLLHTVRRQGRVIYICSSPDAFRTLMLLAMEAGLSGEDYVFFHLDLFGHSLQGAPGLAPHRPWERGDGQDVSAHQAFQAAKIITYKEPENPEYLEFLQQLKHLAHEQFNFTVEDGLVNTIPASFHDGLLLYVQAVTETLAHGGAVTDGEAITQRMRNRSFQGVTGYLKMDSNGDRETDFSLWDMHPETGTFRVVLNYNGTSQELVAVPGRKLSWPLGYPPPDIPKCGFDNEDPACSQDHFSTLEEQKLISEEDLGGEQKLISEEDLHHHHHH

B1: REGN7548 (antibody, human IgG4 S228P, kappa, V domains shown)
VH: QVQLVQSGAEVKKPGASVKVSCKASGYTFTSYYIHWVRQAPGQGLEWMGIISPSDGYTSYAQNFQGRVTMTRDTSTNTVYMDLSSLRSEDTAMFYCARNDPLTTVALDYWGQGTLVTVSS
VL: AIQMTQSPSSLSASVGDRVTITCRASQGIRYDLGWFQQKPGKAPKLLIHAASSLQSGVPSRFSGSGSGTDFTLTISSLQPEDFATYYCLQDYNYPFTFGQGTKLEIKR
notes: also called mAb38090
B2: H4H22034 (antibody, human IgG4 S228P, kappa, V domains shown)
VH: EVQLLESGGDLVQPGGSLRLSCAASGFTFSDYAMIWVRQTPGKGLEWVSGISGGGGSTDYADSVKGRFTTSRDNVKNAMYLQMNSLRTEDTAVYYCAREDQLPSYHNYYGMDVWGQGTTVTVSS
VL: DIQMTQSPSSVSASVGDRVTITCRASQGINNYLAWFQQKPGKAPKSLIYGASSLQSGVPSKFSGSRSGIDFTLTISSLQPEDFATYYCQQYNSYPYTFGQGTKLEIKR
notes: also called H4H22034N; mAb22034
B3: REGN7541 (antibody, human IgG4 S228P, kappa, V domains shown)
VH: EVQLVESGGGLVQPGGSLRLSCAASGFTFSSYAMSWVRQAPGKGLEWVSTISGSGTNTYYADSVKGRFTISNDNSKNTLYLQMNSLRAEDTAVYYCANYDILTGHSFEYWGQGTLVTVSS
VL: AIQMTQSPSSLSASVGDRVTITCRASQGIRNDLGWYQQKPGKAPELLIYAASRLPSGVPLRFSGSGSGTDFTLTISSLQPEDVATYYCLQDYNYPFTFGPGTKVDIKR
notes: also called mAb38067
B4: REGN7544 (antibody, human IgG4 S228P, kappa, V domains shown)
VH: EVQLVESGGGLVQPGGSLRLSCAASGFSFVSYVMGWVRQAPGKGLEWVSSISGSLTNTYYADPVKGRFTISRDNSKNTLYLQMNSLRAEDTAAYYCVTYDILTGHLFDYWGQGTLVTVSS
VL: B3 VL with A25S, L33F, E45K, P55Q, L60S, S76N, S77N, V83F, N93T
notes: also called mAb38072

Assays:
[1] = biological target: T1, pig NPR1 extracellular domain expressed …; assay: SPR Biacore 8K, mAb captured via anti-hFc, 25 C
Protocol: (§1) The equilibrium dissociation constant (KD) for different NPR1 reagents binding to purified anti-NPR1 monoclonal antibodies (mAbs) were determined using a real-time surface plasmon resonance (SPR) based Biacore 8k biosensor. All binding studies were performed in 10 mM HEPES, 150 mM NaCl, 3 mM EDTA, and 0.05% v/v Surfactant P20, pH 7.4 (HBS-EP) running buffer at 25° C. and 37° C. The Biacore CM5 sensor chip surface was first derivatized by amine coupling with anti-human Fc specific antibody to capture anti-NPR1 mAbs. Binding studies were performed on human NPR1 extracellular domain expressed with a C-terminal myc-myc-hexahistidine (hNPR1-MMH; SEQ ID NO:74), monkey NPR1 extracellular domain expressed with a C-terminal myc-myc-hexahistidine (mfNPR1-MMH; SEQ ID NO:75), mouse NPR1 extracellular domain expressed with a C-terminal myc-myc-hexahistidine (mNPR1-MMH; SEQ ID NO:76), dog NPR1 extracellular domain expressed with a C-terminal myc-myc-hexahistidine (dog_NPR1-MMH; SEQ ID NO:77), pig NPR1 extracellular domain expressed with a C-terminal myc-myc-hexahistidine (pig_NPR1-MMH; SEQ ID NO:78), and hNPR1-MMH+10×hANP.
(§2) Different concentrations (40 nM-0.625 nM, 4-fold serial dilutions) of hNPR1-MMH, mfNPR1-MMH, hNPR1-MMH in the presence of 10-fold concentration of hANP, or a fixed concentration (40 nM) of mNPR1-MMH, dog_NPR1-MMH, pig_NPR1-MMH were prepared in HBS-EP running buffer, and then injected for 150 sec at a flow rate of 30 μL/min, while the dissociation of mAb bound different NPR1 reagents was monitored for 30 minutes in HBS-EP running buffer. At the end of each cycle, the anti-NPR1 mAb capture surface was regenerated using a 12 sec injection of 10 mM phosphoric acid. The association rate (ka) and dissociation rate (kd) were determined by fitting the real-time binding sensorgrams to a 1:1 binding model with mass transport limitation using Biacore insight evaluation software. Binding dissociation equilibrium constant (KD) and dissociative half-life (t½) were calculated from the kinetic rates as: […]

[2] = biological target: T3, mouse NPR1 extracellular domain expressed with a C-terminal myc-myc-hexahistidine (mouse, UniProt P18293 29-469); assay: SPR Biacore 8K, mAb captured via anti-hFc, 25 C
T3 construct: also called mNPR1-MMH
Protocol: as §1, §2

[3] = biological target: T2, dog NPR1 extracellular domain expressed …; assay: SPR Biacore 8K, mAb captured via anti-hFc, 25 C
Protocol: as §1, §2

[4] = biological target: T1, pig NPR1 extracellular domain expressed …; assay: SPR Biacore 8K, mAb captured via anti-hFc, 37 C
Protocol: as §1, §2

[5] = biological target: T3, mouse NPR1 extracellular domain …; assay: SPR Biacore 8K, mAb captured via anti-hFc, 37 C
Protocol: as §1, §2
Target sequence in this assay (P18293 other isoform, or with tags, fused parts or gaps): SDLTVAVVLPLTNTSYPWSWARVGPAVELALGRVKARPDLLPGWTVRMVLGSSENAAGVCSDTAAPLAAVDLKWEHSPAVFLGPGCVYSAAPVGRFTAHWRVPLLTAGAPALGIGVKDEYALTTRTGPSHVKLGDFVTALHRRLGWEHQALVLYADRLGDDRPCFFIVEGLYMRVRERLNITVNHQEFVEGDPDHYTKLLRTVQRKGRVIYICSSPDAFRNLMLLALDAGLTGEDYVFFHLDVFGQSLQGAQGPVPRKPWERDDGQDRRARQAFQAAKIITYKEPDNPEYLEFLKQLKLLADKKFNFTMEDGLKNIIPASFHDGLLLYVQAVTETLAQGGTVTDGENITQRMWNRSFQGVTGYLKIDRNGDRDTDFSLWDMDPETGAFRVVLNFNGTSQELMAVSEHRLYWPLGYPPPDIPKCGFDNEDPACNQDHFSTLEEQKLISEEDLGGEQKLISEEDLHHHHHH

[6] = biological target: T2, dog NPR1 extracellular domain expressed …; assay: SPR Biacore 8K, mAb captured via anti-hFc, 37 C
Protocol: as §1, §2

[7] = biological target: T4, monkey NPR1 on HEK293/mfNPR1 cells in the presence of 10 nM hANP (monkey (Macaca fascicularis); human); assay: ECL cell-binding immunoassay (MSD), HEK293/mfNPR1, +10 nM hANP
T4 construct: also called HEK293/mfNPR1 +10 nM hANP
Protocol: (§3) Cultures of the cell lines described above were rinsed once in 1×PBS buffer without Ca²⁺/Mg²⁺ and incubated for 10 minutes at 37° C. with Enzyme Free Cell Dissociation Solution to detach cells from the flask. The collected cell pellets were washed once with and resuspended in 1×PBS with Ca²⁺/Mg²⁺ and then cells were counted with a Cellometer™ Auto T4 cell counter (Nexcelom Bioscience, Lawrence, Mass.). Approximately 2.0×10⁴ cells per well were seeded onto 96-well carbon electrode plates (Meso Scale Diagnostics, Rockville, Md.) and incubated for 1 hour at 37° C. Nonspecific binding sites were blocked using 2% BSA (w/v) in 1×PBS containing Ca²⁺/Mg²⁺ for 1 h at room temperature. Subsequently, HEK293/hNPR1 and HEK293/mfNPR1 cells were incubated for 0.5 hour at room temperature with 10 nM hANP (Tocris, Minneapolis, Minn.), 100 nM hBNP (Tocris, Minneapolis, Minn.), or sample dilution buffer alone, while HEK293 cells were treated with sample dilution buffer only. Without washing, serial dilutions of anti-NPR1, Comparator 1 or the isotype control antibody, ranging from 1.7 pM to 100 nM, or buffer containing no antibody were added to the cells followed by 1 hour incubation at room temperature. Plates were then washed to remove unbound antibodies, hANP, and hBNP using an AquaMax2000 plate washer with a cell washing head (MDS Analytical Technologies, Sunnyvale, Calif.). The plate-bound antibodies were detected with a SULFO-TAG™-conjugated polyclonal goat anti-human IgG antibody specific for heavy and light chains (Jackson Immunoresearch, West Grove, Pa.) that was incubated with the cells for 1 hour at room temperature.
(§4) After washes, plates were developed with Read Buffer (Meso Scale Diagnostics, Rockville, Md.) according to manufacturer's recommended procedure and luminescent signals were recorded with a SECTOR Imager 600 (Meso Scale Diagnostics, Rockville, Md.). The binding signals in a unit of RLU were analyzed as a function of the antibody concentration and data were fitted with a sigmoidal (four-parameter logistic) dose-response model using R statistical package (open source).

[8] = biological target: T5, monkey NPR1 on HEK293/mfNPR1 cells in the presence of 100 nM hBNP (monkey (Macaca fascicularis); human); assay: ECL cell-binding immunoassay (MSD), HEK293/mfNPR1, +100 nM hBNP
T5 construct: also called HEK293/mfNPR1 +100 nM hBNP
Protocol: as §3, §4

[9] = biological target: T6, monkey (Macaca fascicularis) NPR1 on HEK293/mfNPR1 cells (monkey (Macaca fascicularis)); assay: ECL cell-binding immunoassay (MSD), HEK293/mfNPR1, no ligand added
T6 construct: whole, on cells; No ligand added
Protocol: as §3, §4

T4 sequence (P01160 124-151): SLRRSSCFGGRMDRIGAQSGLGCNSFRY
T5 sequence (P16860 103-134): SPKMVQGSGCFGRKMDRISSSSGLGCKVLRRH

Binder | 40 nM Ag Bound (RU) [1] [RU] | Kd [1] [nM] | koff [1] [s⁻¹] | kon [1] [M⁻¹ s⁻¹] | t½ [1] [min] | 40 nM Ag Bound (RU) [2] [RU] | binding result [2] | 40 nM Ag Bound (RU) [3] [RU] | binding result [3] | 40 nM Ag Bound (RU) [4] [RU] | Kd [4] [nM] | koff [4] [s⁻¹] | kon [4] [M⁻¹ s⁻¹] | t½ [4] [min] | 40 nM Ag Bound (RU) [5] [RU] | 40 nM Ag Bound (RU) [6] [RU] | EC50 [7] [nM] | EC50 [8] [nM] | EC50 [9] [nM] | binding result [4]
B1 | 11 | 35.8 | 0.00427 | 119000 | 2.7 | 0 | no binding (tested: 40 nM) | 0 | no binding (tested: 40 nM) | 14 | 42.1 | 0.00927 | 220000 | 1.2 | 0 | 0 | 1.2 | 0.56 | 0.56 | 
B2 | 0 |  |  |  |  | 0 | no binding (tested: 40 nM) | 0 | no binding (tested: 40 nM) | 0 |  |  |  |  | 0 | 0 | 0.67 | 0.42 | 0.33 | no binding (tested: 40 nM)
B3 | 0 |  |  |  |  | 0 | no binding (tested: 40 nM) | 0 | no binding (tested: 40 nM) | 0 |  |  |  |  | 0 | 0 | 2.9 | 0.92 | 1.4 | no binding (tested: 40 nM)
B4 | 2 | 122 | 0.00679 | 55800 | 1.7 | 0 | no binding (tested: 40 nM) | 0 | no binding (tested: 40 nM) | 5 | 98.1 | 0.00947 | 96500 | 1.2 | 0 | 0 | 4.2 | 1.7 | 1.7 | 
